Test system: Escherichia coli TOP10
Experiment: shrunken log2 fold change of peptide-encoding DNA abundance (4.5 h post-induction vs induction); higher = less antimicrobial activity (less host growth inhibition)
Details: time post-induction: 4.5 h; library: site-saturation at positions 5, 18, 19, 20
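Note: peptides expressed intracellularly from a pBAD plasmid library in pooled LB shake-flask culture, induced with 0.3% L-arabinose, DNA abundance read by NGS, three biological replicates, DESeq2 with apeglm shrinkage.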

| Sequence | shrunken log2 fold change |
| --- | --- |
| RRIRVRPPRLPRPRPRPQCKPRP | -0.129 |
| RRIRRRPPRLPRPRPRPECSPRP | -0.121 |
| RRIRCRPPRLPRPRPRPGCSPRP | -0.182 |
| RRIRCRPPRLPRPRPRPDKNPRP | -0.369 |
| RRIRCRPPRLPRPRPRPDTYPRP | -0.075 |
| RRIRARPPRLPRPRPRPADWPRP | 0.984 |
| RRIRGRPPRLPRPRPRPVRIPRP | 0.536 |
| RRIRMRPPRLPRPRPRPGWQPRP | -0.032 |
| RRIRNRPPRLPRPRPRPYGPPRP | -0.00663 |
| RRIRTRPPRLPRPRPRPFGYPRP | 0.0679 |
| RRIRERPPRLPRPRPRPMYAPRP | -0.246 |
| RRIRPRPPRLPRPRPRPIVWPRP | 0.0606 |
| RRIRPRPPRLPRPRPRPNEQPRP | 0.062 |
| RRIRSRPPRLPRPRPRPSFSPRP | -0.351 |
| RRIRWRPPRLPRPRPRPSMCPRP | -0.16 |
| RRIRGRPPRLPRPRPRPTMGPRP | 0.875 |
| RRIRARPPRLPRPRPRPNYPPRP | -0.144 |
| RRIRERPPRLPRPRPRPCQSPRP | -0.127 |
| RRIRCRPPRLPRPRPRPALNPRP | 0.179 |
| RRIRCRPPRLPRPRPRPKEFPRP | 0.0238 |
| RRIRWRPPRLPRPRPRPIMLPRP | 0.464 |
| RRIRYRPPRLPRPRPRPFTDPRP | -0.583 |
| RRIRGRPPRLPRPRPRPSDGPRP | -0.0367 |
| RRIRFRPPRLPRPRPRPTETPRP | -0.0161 |
| RRIRRRPPRLPRPRPRPTDYPRP | -0.00271 |

| Sequence | shrunken log2 fold change |
| --- | --- |
| RRIRARPPRLPRPRPRPTGEPRP | 0.0455 |
| RRIRVRPPRLPRPRPRPYKRPRP | -0.0182 |
| RRIRYRPPRLPRPRPRPDAEPRP | -0.0535 |
| RRIRFRPPRLPRPRPRPCIAPRP | -0.166 |
| RRIRWRPPRLPRPRPRPGRTPRP | 0.0519 |
| RRIRGRPPRLPRPRPRPIFGPRP | -0.0743 |
| RRIRNRPPRLPRPRPRPHHSPRP | 0.0657 |
| RRIRMRPPRLPRPRPRPYWFPRP | -0.131 |
| RRIRERPPRLPRPRPRPSGNPRP | -0.636 |
| RRIRVRPPRLPRPRPRPHNNPRP | -0.652 |
| RRIRQRPPRLPRPRPRPKPGPRP | 0.285 |
| RRIRSRPPRLPRPRPRPQMYPRP | -0.159 |
| RRIRNRPPRLPRPRPRPQTCPRP | 0.0139 |
| RRIRPRPPRLPRPRPRPEYPPRP | 0.045 |
| RRIRNRPPRLPRPRPRPIWMPRP | 0.178 |
| RRIRTRPPRLPRPRPRPNKFPRP | -0.37 |
| RRIRCRPPRLPRPRPRPFNLPRP | -0.335 |
| RRIRARPPRLPRPRPRPKPYPRP | 0.0727 |
| RRIRSRPPRLPRPRPRPWGQPRP | 0.0926 |
| RRIRWRPPRLPRPRPRPWAYPRP | -0.502 |
| RRIRMRPPRLPRPRPRPFSVPRP | -0.0472 |
| RRIRARPPRLPRPRPRPPNSPRP | 0.136 |
| RRIRCRPPRLPRPRPRPFCWPRP | 0.31 |
| RRIRFRPPRLPRPRPRPRRMPRP | 0.397 |
| RRIRPRPPRLPRPRPRPSKNPRP | -0.333 |

| Sequence | shrunken log2 fold change |
| --- | --- |
| RRIRMRPPRLPRPRPRPVWSPRP | 0.709 |
| RRIRERPPRLPRPRPRPACVPRP | 0.24 |
| RRIRARPPRLPRPRPRPPIFPRP | 0.25 |
| RRIRWRPPRLPRPRPRPKSGPRP | -0.0248 |
| RRIRIRPPRLPRPRPRPETVPRP | -0.344 |
| RRIRKRPPRLPRPRPRPYACPRP | -0.0471 |
| RRIRTRPPRLPRPRPRPMEKPRP | -0.00136 |
| RRIRGRPPRLPRPRPRPDPKPRP | 0.649 |
| RRIRCRPPRLPRPRPRPTKFPRP | -0.305 |
| RRIRDRPPRLPRPRPRPAEFPRP | 0.149 |
| RRIRVRPPRLPRPRPRPFKFPRP | -0.0599 |
| RRIRSRPPRLPRPRPRPRRLPRP | 0.193 |
| RRIRERPPRLPRPRPRPTYQPRP | -0.136 |
| RRIRQRPPRLPRPRPRPKKPPRP | 0.0619 |
| RRIRCRPPRLPRPRPRPVSFPRP | -0.228 |
| RRIRDRPPRLPRPRPRPWPCPRP | 0.462 |
| RRIRVRPPRLPRPRPRPCEFPRP | -0.242 |
| RRIRLRPPRLPRPRPRPQYIPRP | -0.189 |
| RRIRRRPPRLPRPRPRPCKNPRP | 0.0778 |
| RRIRMRPPRLPRPRPRPHSEPRP | 0.134 |
| RRIRGRPPRLPRPRPRPVTQPRP | 0.445 |
| RRIRMRPPRLPRPRPRPPIPPRP | 0.556 |
| RRIRVRPPRLPRPRPRPITEPRP | -0.0116 |
| RRIRERPPRLPRPRPRPHINPRP | -0.713 |
| RRIRERPPRLPRPRPRPVKRPRP | 0.025 |

| Sequence | shrunken log2 fold change |
| --- | --- |
| RRIRQRPPRLPRPRPRPSRDPRP | -0.141 |
| RRIRDRPPRLPRPRPRPFEFPRP | 0.0215 |
| RRIRIRPPRLPRPRPRPIVPPRP | -0.407 |
| RRIRTRPPRLPRPRPRPADQPRP | -0.0202 |
| RRIRIRPPRLPRPRPRPFLDPRP | -0.888 |
| RRIRERPPRLPRPRPRPLFVPRP | -0.799 |
| RRIRRRPPRLPRPRPRPFGQPRP | -0.336 |
| RRIRSRPPRLPRPRPRPMHRPRP | 0.0682 |
| RRIRDRPPRLPRPRPRPSNLPRP | -0.0257 |
| RRIRSRPPRLPRPRPRPWVNPRP | -0.0336 |
| RRIRCRPPRLPRPRPRPEFAPRP | 0.375 |
| RRIRCRPPRLPRPRPRPVDVPRP | -0.375 |
| RRIRTRPPRLPRPRPRPVHEPRP | 0.247 |
| RRIRDRPPRLPRPRPRPTAMPRP | 0.858 |
| RRIRGRPPRLPRPRPRPWSRPRP | -0.188 |
| RRIRSRPPRLPRPRPRPNWVPRP | -0.214 |
| RRIRARPPRLPRPRPRPDVHPRP | 0.196 |
| RRIRWRPPRLPRPRPRPTAWPRP | 2 |
| RRIRPRPPRLPRPRPRPSQFPRP | -0.0669 |
| RRIRWRPPRLPRPRPRPKSRPRP | -0.0202 |
| RRIRMRPPRLPRPRPRPHLQPRP | 0.0376 |
| RRIRQRPPRLPRPRPRPNDIPRP | -0.348 |
| RRIRMRPPRLPRPRPRPWLEPRP | -0.00871 |
| RRIRNRPPRLPRPRPRPNKNPRP | -0.406 |
| RRIRNRPPRLPRPRPRPYACPRP | -0.167 |

| Sequence | shrunken log2 fold change |
| --- | --- |
| RRIRQRPPRLPRPRPRPLETPRP | 0.181 |
| RRIRMRPPRLPRPRPRPPYCPRP | 0.0371 |
| RRIRARPPRLPRPRPRPPKYPRP | -0.109 |
| RRIRGRPPRLPRPRPRPQVVPRP | 0.0944 |
| RRIRLRPPRLPRPRPRPWSIPRP | -0.0808 |
| RRIRLRPPRLPRPRPRPNYMPRP | -0.251 |
| RRIRNRPPRLPRPRPRPHDLPRP | 0.0667 |
| RRIRQRPPRLPRPRPRPGMDPRP | 0.342 |
| RRIRLRPPRLPRPRPRPYCVPRP | -0.622 |
| RRIRKRPPRLPRPRPRPKCKPRP | 0.545 |
| RRIRNRPPRLPRPRPRPLCSPRP | -0.0294 |
| RRIRFRPPRLPRPRPRPWMGPRP | -0.592 |
| RRIRERPPRLPRPRPRPRWAPRP | 0.425 |
| RRIRIRPPRLPRPRPRPEHDPRP | -0.523 |
| RRIRNRPPRLPRPRPRPFQQPRP | -0.00931 |
| RRIRSRPPRLPRPRPRPDNGPRP | -0.232 |
| RRIRKRPPRLPRPRPRPNLRPRP | 0.211 |
| RRIRGRPPRLPRPRPRPCYQPRP | 0.219 |
| RRIRMRPPRLPRPRPRPVQQPRP | 0.113 |
| RRIRYRPPRLPRPRPRPCHVPRP | -0.0447 |
| RRIRIRPPRLPRPRPRPTHLPRP | -0.0268 |
| RRIRIRPPRLPRPRPRPNTQPRP | -0.295 |
| RRIRVRPPRLPRPRPRPYFMPRP | -0.797 |
| RRIRTRPPRLPRPRPRPNDQPRP | -0.212 |
| RRIRPRPPRLPRPRPRPIYMPRP | -0.306 |

| Sequence | shrunken log2 fold change |
| --- | --- |
| RRIRCRPPRLPRPRPRPVHRPRP | -0.319 |
| RRIRHRPPRLPRPRPRPKYNPRP | -0.892 |
| RRIRVRPPRLPRPRPRPRVAPRP | 0.381 |
| RRIRVRPPRLPRPRPRPCKFPRP | 0.01 |
| RRIRQRPPRLPRPRPRPDIKPRP | -0.0227 |
| RRIRNRPPRLPRPRPRPYPPPRP | -0.671 |
| RRIRDRPPRLPRPRPRPRTTPRP | 0.0893 |
| RRIRMRPPRLPRPRPRPCLQPRP | -0.0178 |
| RRIRGRPPRLPRPRPRPDSVPRP | 0.704 |
| RRIRMRPPRLPRPRPRPGNGPRP | 0.885 |
| RRIRVRPPRLPRPRPRPFMWPRP | -0.327 |
| RRIRHRPPRLPRPRPRPVCAPRP | 0.208 |
| RRIRIRPPRLPRPRPRPHCLPRP | -0.104 |
| RRIRERPPRLPRPRPRPWWHPRP | -0.523 |
| RRIRWRPPRLPRPRPRPELSPRP | 0.101 |
| RRIRWRPPRLPRPRPRPMNYPRP | -0.364 |
| RRIRGRPPRLPRPRPRPAGIPRP | 0.207 |
| RRIRSRPPRLPRPRPRPPNDPRP | -0.0183 |
| RRIRMRPPRLPRPRPRPDGVPRP | 0.0632 |
| RRIRWRPPRLPRPRPRPTCVPRP | 0.145 |
| RRIRHRPPRLPRPRPRPLNSPRP | -0.883 |
| RRIRARPPRLPRPRPRPWWSPRP | 0.271 |
| RRIRSRPPRLPRPRPRPARIPRP | 0.0694 |
| RRIRGRPPRLPRPRPRPMYAPRP | 0.706 |
| RRIRIRPPRLPRPRPRPTFMPRP | 1.69 |

Source: the supplement of paper PMC9112550, “Optimization of the antimicrobial peptide Bac7 by deep mutational scanning” (BMC Biology, 2022)
